According to US20070072177A1 (CRUCELL HOLLAND B V, published 2007):

Columns and labels:
[1] = molecular target: T1, purified rabies virus glycoprotein (rabies virus ERA strain) (rabies virus strain ERA, UniProt P03524 20-524); assay: phage ELISA on coated purified G protein (ERA), anti-M13-HRP
[2] = molecular target: T2, glycoprotein of rabies virus strain CVS-11 (rabies virus strain CVS-11, UniProt O92284 20-524); assay: cell-based or functional assay
T2 sequence: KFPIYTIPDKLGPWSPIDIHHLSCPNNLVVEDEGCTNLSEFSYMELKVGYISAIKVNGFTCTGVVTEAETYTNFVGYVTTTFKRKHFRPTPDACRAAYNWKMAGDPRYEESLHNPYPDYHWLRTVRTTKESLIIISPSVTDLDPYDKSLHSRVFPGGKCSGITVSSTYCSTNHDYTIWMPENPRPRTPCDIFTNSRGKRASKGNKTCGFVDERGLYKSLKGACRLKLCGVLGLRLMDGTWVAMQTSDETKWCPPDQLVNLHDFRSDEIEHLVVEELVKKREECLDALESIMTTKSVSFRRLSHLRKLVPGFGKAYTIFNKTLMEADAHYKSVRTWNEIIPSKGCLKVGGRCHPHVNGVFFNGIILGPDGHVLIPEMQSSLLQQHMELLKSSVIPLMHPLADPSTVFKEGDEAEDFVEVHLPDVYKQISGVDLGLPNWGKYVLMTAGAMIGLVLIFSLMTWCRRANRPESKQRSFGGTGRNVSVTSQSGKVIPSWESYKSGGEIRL

[3] = molecular target: T3, rabies virus glycoprotein (G protein) of strain CVS-11 (rabies virus strain CVS-11, UniProt O92284 20-524); assay: cell-based or functional assay
T3 sequence: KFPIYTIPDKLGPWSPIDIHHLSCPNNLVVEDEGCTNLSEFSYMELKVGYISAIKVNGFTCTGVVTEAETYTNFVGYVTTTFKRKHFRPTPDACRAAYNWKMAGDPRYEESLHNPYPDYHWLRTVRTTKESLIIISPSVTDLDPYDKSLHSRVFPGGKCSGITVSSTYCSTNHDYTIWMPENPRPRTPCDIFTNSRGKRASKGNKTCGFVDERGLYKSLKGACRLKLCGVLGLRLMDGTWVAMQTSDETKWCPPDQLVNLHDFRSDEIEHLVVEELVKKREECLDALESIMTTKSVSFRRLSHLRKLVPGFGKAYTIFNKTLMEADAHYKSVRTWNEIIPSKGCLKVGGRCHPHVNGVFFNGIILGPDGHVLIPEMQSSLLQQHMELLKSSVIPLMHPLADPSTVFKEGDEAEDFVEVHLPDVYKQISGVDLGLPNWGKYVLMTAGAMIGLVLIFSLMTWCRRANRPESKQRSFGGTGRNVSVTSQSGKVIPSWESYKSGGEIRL

[4] = molecular target: T1, purified rabies virus glycoprotein …; assay: SPR (BIAcore3000), ERA glycoprotein amine-coupled to CM5 chip, antibody injected

B1: SC04-125 (scFv)
scFv: AMAQVQLVESGGGVVQPGRSLRLSCAASGFTFSSYGMHWVRQAPGKGLEWVAVISYDGSDKYYADSVKGRFTISRDNSKNTLYLQMNSLRAEDTAVYYCAKIATAGTGFDYWGQGTLVTVSSGTGGSGGTGSGTGGSTDIQMTQSPSSVSASVGDRVTITCRASQGISSYLAWYQQKPGKAPKLLIYDASSLESGVPSRFSGSGSGTEFTLTISSLQPDDFATYYCQQLNSYPLTFGGGTKVEIKRAAA
[1]
  OD 492 nm: 0.735 OD 492 nm
[2]
  Potency (IU/ml): 3 IU/ml

B2: SC04-146 (scFv)
scFv: AMAEVQLVQSGGGVVQPGRSLRLSCAASGFTFSSYGMHWVRQAPGKGLEWVATISYDGSIKDYADSEEGRFTISRDNSKNTLYLQMNSLRAEDTAVYYCAKGGKTGEFDYWGQGTLVTVSSGTGGSGGTGSGTGGSTDVVMTQSPATLSVSPGESATLFCRASESVYSNLAWYQHKPGRAPRLLIYGASTRATGIPARFDGTGSGTDFTLTISSLQSEDFAVYYCQQYNDWPITFGQGTRLEIKRAAA
[1]
  OD 492 nm: 0.484 OD 492 nm
[2]
  Potency (IU/ml): 3 IU/ml

B3: SC04-140 (scFv)
scFv: AMAQMQLVQSGGGVVQPGRSLRLSCAASGFTFSSYGMHWVRQAPGKGLEWVAVILYDGSNKYYADSVKGRFTISRDNSKNALYLQMNSLRAEDTAVYYCAKVTNPGDAFDIWGQGTMVTVSSGTGGSGGTGSGTGGSTDIQMTQSPSSLSASVGDRVTITCRASQGISSALAWYQQKPGKAPKLLIYDASSLESGVPSRFSGSGSGTDFTLTISSLQPEDFATYYCQQFNSYPLTFGGGTKVEIKRAAA
[1]
  OD 492 nm: 0.865 OD 492 nm
[2]
  Potency (IU/ml): 1 IU/ml

B4: CR04-010 (antibody, V domains shown)
VH: QVQLVESGGDLVQPGRSLRLSCAASGFTFSSYGMHWVRQAPGKGLEWVADISYDGSNKYYADSVKGRFTISRDNSKNTLYLQMNSLRAEDTAVYYCAKDGLDLTGTIQPFGYWGQGTLVTVSS
VL: AIQMTQSPSSLSASVGDRVTITCRASQGIRNDLGWYQQKPGKAPKLLIYAASSLQSGVPSRFSGSGSGTDFTLTISSLQPEDFATYYCLQDYNYPRTFGQGTKVEIKR
[3]
  Neutralizing potency (modified RFFIT): 3000 IU/mg

B5: CR04-098 (antibody, V domains shown)
VH: QVQLVESGGGAVQPGRSLRLSCAASGFTFSSYGMHWVRQAPGKGLEWVAVILYDGSDKFYADSVKGRFTISRDNSKNTLYLQMNSLRAEDTAVYYCAKVAVAGTHFDYWGQGTLVTVSS
VL: DIQMTQSPSSLSASVGDRVTITCRASQGIRNDLGWYQQKPGKAPKLLIYAASSLQSGVPSRFSGSGSGTDFTLTISSLQPEDFATYYCQQLNSYPPTFGGGTKVEIKT
[4]
  Kd: 4.5 nM

B6: CR57 (antibody, V domains shown)
VH: QVQLVQSGAEVKKPGSSVKVSCKASGGTFNRYTVNWVRQAPGQGLEWMGGIIPIFGTANYAQRFQGRLTITADESTSTAYMELSSLRSDDTAVYFCARENLDNSGTYYYFSGWFDPWGQGTLVTVSS
VL: QSALTQPRSVSGSPGQSVTISCTGTSSDIGGYNFVSWYQQHPGKAPKLMIYDATKRPSGVPDRFSGSKSGNTASLTISGLQAEDEADYYCCSYAGDYTPGVVFGGGTKLTVLG
[3]
  Neutralizing potency (modified RFFIT): 3800 IU/mg

B7: SC04-126 (scFv)
scFv: AMAQVTLKESGPTLVNPTQTLTLTCTFSGFSLSTGGVGVGWFRQPPGKALEWLARIDWDDDKYYSTSLKTRLTISKDTSKIQVVLTMTNMDPVDTATYYCARMGFTGTYFDYWGQGTLVTVSSGTGGSGGTGSGTGGSTQSVLTQPPSVSVAPGKTARITCGGNNIGSKSVHWYQQKPGQAPVLVIYYDSDRPSGIPERFSGSNSGNTATLTISRVEAGDEADYYCQVWDSSSDHPYVFGTGTKLTVLGAAA
[1]
  OD 492 nm: 0.232 OD 492 nm
[2]
  Potency (IU/ml): 0.1 IU/ml

B8: SC04-120 (scFv)
scFv: AMAEVQLVQSGGGLVQPGRSLRLSCAASGFTFSTYGMHWVRQAPGKGLEWVATISYDGSIKDYADSEKGRFTISRDNSKNTLYLQMNSLRAEDTAVYYCAKGGKTGEFDYWGQGTLVTVSSGTGGSGGTGSGTGGSTDIQLTQSPSTLSASVGDRVTITCRASQGINSYLAWYQQEPGKAPKLLIYAASTLQSGVPSRFSGSGSGTEFTLTISSLQPEDFATYYCQQLNSYPFTFGPGTKVDIKRAAA
[1]
  OD 492 nm: 0.571 OD 492 nm
[2]
  Potency (IU/ml): 6 IU/ml

B9: CRJB (antibody, V domains shown)
VH: QITLKETGPTLVKPTQTLTLTCTFSGFSLSTSGVGVGWIRQPPGKALEWVTLIYWDDDKRYSPSLENRVTIRKDTSKNQVALTMTNMDPLDTGTYYCAHRQHISSFPWFDSWGQGTLVTVSS
VL: SYVLTQPPSVSVAPGKTARINCGGNNIEYRSVHWYQQKSGQAPVAVIYDNSDRPSGIPERFSGSKSGNTATLTISRVEAGDEADYYCQVWDISSDVVFGGGTKLTVLG
[3]
  Neutralizing potency (modified RFFIT): 605 IU/mg

B10: SC04-144 (scFv)
scFv: AMAQVQLQELGGGVVQPGRSLRLSCAASGFTFGSYGMHWVRQAPGKGLEWVATISYDGSIKDYADSEKGRFTISRDNSKNTLYLQMNSLRAEDTAVYYCAKGGKTGEFDYWGQGTLVTVSSGTGGSGGTGSGTGGSTDIQLTQSPSSLSASVGDRVTITCRASQGISSYLAWYQQKPGKGPKLLIYAASTLQSGVPSRFSGSGSGTDFSLTISSLQPEDLATYYCQQYDSYPLTFGGGTKVEIKRAAA
[1]
  OD 492 nm: 0.775 OD 492 nm
[2]
  Potency (IU/ml): 6 IU/ml
